The target in assay [1] is T1, CD3 on Jurkat wild-type cells (UniProt P07766 23-207; P04234 22-171; P09693 23-182).
T1 construct: whole, on cells; also called Jurkat WT
The assay is described as follows: flow cytometry on Jurkat WT cells, antibody at 1 ug/ml. For orientation: Flow cytometry measures light scatter and fluorescence of single cells or particles in a stream.

The target in assay [2] is T1, CD3 on Jurkat wild-type cells. The assay is described as follows: flow cytometry on Jurkat WT cells, antibody at 10 ug/ml.
Assay [3] addresses T2, CD33 on KILR-HL60 cells (UniProt P20138 18-364, limits assumed).
T2 construct: whole, on cells; Target of the gemtuzumab arm; also called CD33 expressing cells
The assay is described as follows: flow cytometry on KILR-HL60 (CD33 expressing) cells, antibody at 1 ug/ml.

For assay [4], the target named is T2, CD33 on KILR-HL60 cells. The assay is described as follows: flow cytometry on KILR-HL60 (CD33 expressing) cells, antibody at 10 ug/ml.

T1 sequence (P07766 23-207, chain 1 of 3): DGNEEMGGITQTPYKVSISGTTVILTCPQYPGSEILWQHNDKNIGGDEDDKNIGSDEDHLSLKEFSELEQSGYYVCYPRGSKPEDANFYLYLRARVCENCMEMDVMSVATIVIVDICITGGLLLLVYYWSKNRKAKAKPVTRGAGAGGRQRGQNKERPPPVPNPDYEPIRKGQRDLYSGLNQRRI
T1 sequence (P04234 22-171, chain 2 of 3): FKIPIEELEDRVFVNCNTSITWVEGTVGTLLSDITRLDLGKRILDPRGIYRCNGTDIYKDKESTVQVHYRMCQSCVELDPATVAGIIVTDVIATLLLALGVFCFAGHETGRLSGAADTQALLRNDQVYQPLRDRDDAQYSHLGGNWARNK
T1 sequence (P09693 23-182, chain 3 of 3): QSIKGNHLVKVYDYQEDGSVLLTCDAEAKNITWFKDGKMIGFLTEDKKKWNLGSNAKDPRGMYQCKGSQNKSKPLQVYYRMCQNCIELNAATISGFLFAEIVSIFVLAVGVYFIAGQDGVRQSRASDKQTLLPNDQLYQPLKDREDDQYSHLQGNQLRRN
T2 sequence (P20138 18-364 limits assumed): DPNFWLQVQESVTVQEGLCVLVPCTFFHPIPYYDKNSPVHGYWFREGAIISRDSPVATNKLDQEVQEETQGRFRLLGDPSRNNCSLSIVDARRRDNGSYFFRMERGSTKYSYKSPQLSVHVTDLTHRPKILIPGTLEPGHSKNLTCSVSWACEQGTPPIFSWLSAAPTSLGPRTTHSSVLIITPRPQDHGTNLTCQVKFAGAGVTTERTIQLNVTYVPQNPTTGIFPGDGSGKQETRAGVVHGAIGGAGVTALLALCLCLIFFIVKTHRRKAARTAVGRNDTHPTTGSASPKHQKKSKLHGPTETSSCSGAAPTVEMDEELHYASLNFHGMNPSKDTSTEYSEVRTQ

B1: CD3 × CD33-BspAb45 (bispecific antibody)
chain 1: EVQLVESGGGLVQPGGSLRLSCAASGFTFSRYSMNWVRQAPGKCLEWVSYISSSSSSIYYADSVKGRFTISRDNAKNSLYLQMNSLRDEDTAVYYCARDRRATLDYWGQGTLVTVSSGGGGSGGGGSGGGGSGGGGSNFMLTQPHSVSESPGKTVTISCTRSSGSIASNYVQWYQQRPGSSPTTVIYEDNQRPSGVPDRFSGSIDSSSNSASLTISGLKTEDEADYYCQSYDSSNHVFGCGTKLTVLDKTHTCPPCPAPEFEGGPSVFLFPPKPKDTLMISRTPEVTCVVVDVSHEDPEVKFNWYVDGVEVHNAKTKPREEQYNSTYRVVSVLTVLHQDWLNGKEYKCKVSNKALPASIEKTISKAKGQPREPQVYTLPPCREEMTKNQVSLWCLVKGFYPSDIAVEWESNGQPENNYKTTPPVLDSDGSFFLYSKLTVDKSRWQQGNVFSCSVMHEALHNHYTQKSLSLSPGK
chain 2: EVQLVQSGAEVKKPGSSVKVSCKASGYTITDSNIHWVRQAPGQSLEWIGYIYPYNGGTDYNQKFKNRATLTVDNPTNTAYMELSSLRSEDTAFYYCVNGNPWLAYWGQGTLVTVSSASTKGPSVFPLAPSSKSTSGGTAALGCLVKDYFPEPVTVSWNSGALTSGVHTFPAVLQSSGLYSLSSVVTVPSSSLGTQTYICNVNHKPSNTKVDKRVEPKSCDKTHTCPPCPAPEFEGGPSVFLFPPKPKDTLMISRTPEVTCVVVDVSHEDPEVKFNWYVDGVEVHNAKTKPREEQYNSTYRVVSVLTVLHQDWLNGKEYKCKVSNKALPASIEKTISKAKGQPREPQVCTLPPSREEMTKNQVSLSCAVKGFYPSDIAVEWESNGQPENNYKTTPPVLDSDGSFFLVSKLTVDKSRWQQGNVFSCSVMHEALHNRFTQKSLSLSPGK
chain 3: DIQLTQSPSTLSASVGDRVTITCRASESLDNYGIRFLTWFQQKPGKAPKLLMYAASNQGSGVPSRFSGSGSGTEFTLTISSLQPDDFATYYCQQTKEVPWSFGQGTKVEVKRTVAAPSVFIFPPSDEQLKSGTASVVCLLNNFYPREAKVQWKVDNALQSGNSQESVTEQDSKDSTYSLSSTLTLSKADYEKHKVYACEVTHQGLSSPVTKSFNRGEC
In the case of B1, the flow cytometry signal is 19200 in assay [1], 38300 in assay [2], 640000 in the assay with CD33 on KILR-HL60 cells [3] and 741000 with CD33 on KILR-HL60 cells [4].

B2: CD3 × CD33-BspAb48 (bispecific antibody)
chain 1: QVTLKESGPGILQPSQTLSLTCSFSGFSLSTFGMGVGWIRQPSGKCLEWLAHIWWDDDKYYNPALKSRLTISKDTSKNQVFLKIANVDTADTATYYCARLGYYPYWFFDVWGTGTTVTVSSGGGGSGGGGSGGGGSGGGGSNFMLTQPHSVSESPGKTVTIACTRSSGSIASNYVQWYQQRPGSSPTTVIYEDNQRPSGVPDRFSGSIDSSSNSASLTISGLKTEDEADYYCQSYDSSNQVFGCGTKLTVLDKTHTCPPCPAPEFEGGPSVFLFPPKPKDTLMISRTPEVTCVVVDVSHEDPEVKFNWYVDGVEVHNAKTKPREEQYNSTYRVVSVLTVLHQDWLNGKEYKCKVSNKALPASIEKTISKAKGQPREPQVYTLPPCREEMTKNQVSLWCLVKGFYPSDIAVEWESNGQPENNYKTTPPVLDSDGSFFLYSKLTVDKSRWQQGNVFSCSVMHEALHNHYTQKSLSLSPGK
chain 2: EVQLVQSGAEVKKPGSSVKVSCKASGYTITDSNIHWVRQAPGQSLEWIGYIYPYNGGTDYNQKFKNRATLTVDNPTNTAYMELSSLRSEDTAFYYCVNGNPWLAYWGQGTLVTVSSASTKGPSVFPLAPSSKSTSGGTAALGCLVKDYFPEPVTVSWNSGALTSGVHTFPAVLQSSGLYSLSSVVTVPSSSLGTQTYICNVNHKPSNTKVDKRVEPKSCDKTHTCPPCPAPEFEGGPSVFLFPPKPKDTLMISRTPEVTCVVVDVSHEDPEVKFNWYVDGVEVHNAKTKPREEQYNSTYRVVSVLTVLHQDWLNGKEYKCKVSNKALPASIEKTISKAKGQPREPQVCTLPPSREEMTKNQVSLSCAVKGFYPSDIAVEWESNGQPENNYKTTPPVLDSDGSFFLVSKLTVDKSRWQQGNVFSCSVMHEALHNRFTQKSLSLSPGK
chain 3: DIQLTQSPSTLSASVGDRVTITCRASESLDNYGIRFLTWFQQKPGKAPKLLMYAASNQGSGVPSRFSGSGSGTEFTLTISSLQPDDFATYYCQQTKEVPWSFGQGTKVEVKRTVAAPSVFIFPPSDEQLKSGTASVVCLLNNFYPREAKVQWKVDNALQSGNSQESVTEQDSKDSTYSLSSTLTLSKADYEKHKVYACEVTHQGLSSPVTKSFNRGEC
On to B2, for which the flow cytometry signal was 4140 in assay [1], 10800 in assay [2], 566000 in the assay with CD33 on KILR-HL60 cells [3] and 483000 with CD33 on KILR-HL60 cells [4].

B3: CD3 × CD33-BspAb37 (bispecific antibody)
chain 1: not shown
chain 2: EVQLVQSGAEVKKPGSSVKVSCKASGYTITDSNIHWVRQAPGQSLEWIGYIYPYNGGTDYNQKFKNRATLTVDNPTNTAYMELSSLRSEDTAFYYCVNGNPWLAYWGQGTLVTVSSASTKGPSVFPLAPSSKSTSGGTAALGCLVKDYFPEPVTVSWNSGALTSGVHTFPAVLQSSGLYSLSSVVTVPSSSLGTQTYICNVNHKPSNTKVDKRVEPKSCDKTHTCPPCPAPEFEGGPSVFLFPPKPKDTLMISRTPEVTCVVVDVSHEDPEVKFNWYVDGVEVHNAKTKPREEQYNSTYRVVSVLTVLHQDWLNGKEYKCKVSNKALPASIEKTISKAKGQPREPQVCTLPPSREEMTKNQVSLSCAVKGFYPSDIAVEWESNGQPENNYKTTPPVLDSDGSFFLVSKLTVDKSRWQQGNVFSCSVMHEALHNRFTQKSLSLSPGK
chain 3: DIQLTQSPSTLSASVGDRVTITCRASESLDNYGIRFLTWFQQKPGKAPKLLMYAASNQGSGVPSRFSGSGSGTEFTLTISSLQPDDFATYYCQQTKEVPWSFGQGTKVEVKRTVAAPSVFIFPPSDEQLKSGTASVVCLLNNFYPREAKVQWKVDNALQSGNSQESVTEQDSKDSTYSLSSTLTLSKADYEKHKVYACEVTHQGLSSPVTKSFNRGEC
Take B3: the flow cytometry signal in assay [1] came out at 10900; in assay [2], 32800; with CD33 on KILR-HL60 cells [3] it was 486000; with CD33 on KILR-HL60 cells [4] it was 758000.

B4: CD3 × CD33-BspAb51 (bispecific antibody)
chain 1: not shown
chain 2: EVQLVQSGAEVKKPGSSVKVSCKASGYTITDSNIHWVRQAPGQSLEWIGYIYPYNGGTDYNQKFKNRATLTVDNPTNTAYMELSSLRSEDTAFYYCVNGNPWLAYWGQGTLVTVSSASTKGPSVFPLAPSSKSTSGGTAALGCLVKDYFPEPVTVSWNSGALTSGVHTFPAVLQSSGLYSLSSVVTVPSSSLGTQTYICNVNHKPSNTKVDKRVEPKSCDKTHTCPPCPAPEFEGGPSVFLFPPKPKDTLMISRTPEVTCVVVDVSHEDPEVKFNWYVDGVEVHNAKTKPREEQYNSTYRVVSVLTVLHQDWLNGKEYKCKVSNKALPASIEKTISKAKGQPREPQVCTLPPSREEMTKNQVSLSCAVKGFYPSDIAVEWESNGQPENNYKTTPPVLDSDGSFFLVSKLTVDKSRWQQGNVFSCSVMHEALHNRFTQKSLSLSPGK
chain 3: DIQLTQSPSTLSASVGDRVTITCRASESLDNYGIRFLTWFQQKPGKAPKLLMYAASNQGSGVPSRFSGSGSGTEFTLTISSLQPDDFATYYCQQTKEVPWSFGQGTKVEVKRTVAAPSVFIFPPSDEQLKSGTASVVCLLNNFYPREAKVQWKVDNALQSGNSQESVTEQDSKDSTYSLSSTLTLSKADYEKHKVYACEVTHQGLSSPVTKSFNRGEC
With B4, the flow cytometry signal in assay [1] came to 12000; in assay [2], 24300; in the assay with CD33 on KILR-HL60 cells [3] it was 509000; in the assay with CD33 on KILR-HL60 cells [4], 691000.

B5: CD3 × CD33-BspAb50 (bispecific antibody)
scFv-Fc: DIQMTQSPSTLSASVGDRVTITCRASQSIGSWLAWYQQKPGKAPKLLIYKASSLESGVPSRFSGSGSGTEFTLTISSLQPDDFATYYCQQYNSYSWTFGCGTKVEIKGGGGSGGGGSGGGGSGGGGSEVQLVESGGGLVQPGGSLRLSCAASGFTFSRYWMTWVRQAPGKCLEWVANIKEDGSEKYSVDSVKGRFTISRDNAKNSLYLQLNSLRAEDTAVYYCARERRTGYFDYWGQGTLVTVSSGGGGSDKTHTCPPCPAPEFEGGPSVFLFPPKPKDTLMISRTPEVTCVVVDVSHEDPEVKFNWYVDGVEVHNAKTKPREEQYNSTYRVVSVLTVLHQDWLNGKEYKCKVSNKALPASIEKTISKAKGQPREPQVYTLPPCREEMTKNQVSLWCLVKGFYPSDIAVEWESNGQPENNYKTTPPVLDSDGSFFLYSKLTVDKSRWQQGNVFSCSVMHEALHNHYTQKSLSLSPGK
heavy: EVQLVQSGAEVKKPGSSVKVSCKASGYTITDSNIHWVRQAPGQSLEWIGYIYPYNGGTDYNQKFKNRATLTVDNPTNTAYMELSSLRSEDTAFYYCVNGNPWLAYWGQGTLVTVSSASTKGPSVFPLAPSSKSTSGGTAALGCLVKDYFPEPVTVSWNSGALTSGVHTFPAVLQSSGLYSLSSVVTVPSSSLGTQTYICNVNHKPSNTKVDKRVEPKSCDKTHTCPPCPAPEFEGGPSVFLFPPKPKDTLMISRTPEVTCVVVDVSHEDPEVKFNWYVDGVEVHNAKTKPREEQYNSTYRVVSVLTVLHQDWLNGKEYKCKVSNKALPASIEKTISKAKGQPREPQVCTLPPSREEMTKNQVSLSCAVKGFYPSDIAVEWESNGQPENNYKTTPPVLDSDGSFFLVSKLTVDKSRWQQGNVFSCSVMHEALHNRFTQKSLSLSPGK
light: DIQLTQSPSTLSASVGDRVTITCRASESLDNYGIRFLTWFQQKPGKAPKLLMYAASNQGSGVPSRFSGSGSGTEFTLTISSLQPDDFATYYCQQTKEVPWSFGQGTKVEVKRTVAAPSVFIFPPSDEQLKSGTASVVCLLNNFYPREAKVQWKVDNALQSGNSQESVTEQDSKDSTYSLSSTLTLSKADYEKHKVYACEVTHQGLSSPVTKSFNRGEC
Regarding B5, the flow cytometry signal in assay [1] was 9700; in assay [2], 33900; in the assay with CD33 on KILR-HL60 cells [3], 475000; in the assay with CD33 on KILR-HL60 cells [4], 465000.

(Values after patent US20260167721A1 (ABLEXIS, published 2026).)
